Assay results from patent US20240052042A1 (Novartis, published 2024).

Key:
rat NPR1 (rNPR1) = target: T1, rat NPR1 (rNPR1) (rat, UniProt P18910 29-469, limits assumed); test: ELISA, IgG titrated on coated antigen, fluorescence [Cont.]
T1 construct: Soluble antigen
T1 sequence: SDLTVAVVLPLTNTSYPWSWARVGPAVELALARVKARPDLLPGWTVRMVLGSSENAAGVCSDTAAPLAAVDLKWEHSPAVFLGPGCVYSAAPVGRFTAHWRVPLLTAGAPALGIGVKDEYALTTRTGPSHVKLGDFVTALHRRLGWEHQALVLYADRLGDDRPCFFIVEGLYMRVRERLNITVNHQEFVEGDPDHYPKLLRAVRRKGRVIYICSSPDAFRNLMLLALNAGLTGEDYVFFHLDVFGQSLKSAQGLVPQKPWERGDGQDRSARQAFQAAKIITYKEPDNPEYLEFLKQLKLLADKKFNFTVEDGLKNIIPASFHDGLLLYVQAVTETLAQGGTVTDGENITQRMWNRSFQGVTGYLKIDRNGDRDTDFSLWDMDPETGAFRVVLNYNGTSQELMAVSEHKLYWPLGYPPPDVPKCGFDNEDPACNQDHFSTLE

rNPR1-ANP complex = target: T2, rNPR1-ANP complex (rat, UniProt P01160 124-151 (human entry), limits assumed); test: ELISA, IgG titrated on coated antigen with ANP (250 fold molar excess), fluorescence [Cont.]
T2 construct: rNPR1 antigen in the presence of ANP; also called rNPR1 + 100 nM ANP
T2 sequence: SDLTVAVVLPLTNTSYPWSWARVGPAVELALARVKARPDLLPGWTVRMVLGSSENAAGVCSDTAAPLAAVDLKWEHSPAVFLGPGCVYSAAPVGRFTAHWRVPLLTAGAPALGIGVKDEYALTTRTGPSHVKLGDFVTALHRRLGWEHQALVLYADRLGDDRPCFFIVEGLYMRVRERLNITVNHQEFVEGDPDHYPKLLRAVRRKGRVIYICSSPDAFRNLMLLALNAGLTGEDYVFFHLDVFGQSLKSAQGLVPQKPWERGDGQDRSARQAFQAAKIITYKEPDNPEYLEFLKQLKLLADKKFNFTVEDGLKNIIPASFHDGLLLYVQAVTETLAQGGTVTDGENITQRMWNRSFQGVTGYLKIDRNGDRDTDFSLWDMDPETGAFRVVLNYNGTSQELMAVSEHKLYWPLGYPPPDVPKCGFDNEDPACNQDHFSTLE
T2 sequence (peptide): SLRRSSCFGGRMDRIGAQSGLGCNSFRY

[1] = target: human NPR1 on CHO-K1 cells in the presence of ANP (human) (UniProt P01160); test: flow cytometry, hNPR1 CHO-K1 cells, IgG
[2] = target: constitutively active human NPR1 mutant (W74R) (human) (UniProt P16066); test: ELISA, IgG
[3] = target: W74R hNPR1 mutant in the presence of ANP (human) (UniProt P01160); test: ELISA, IgG
[4] = target: T3, human NPR1 on CHO-K1 cells in the presence of ANP (human, UniProt P01160 124-151); test: flow cytometry (FL2-H) on hNPR1 CHO-K1 cells with saturating ANP, IgG titrated; control parental CHO-K1 [Cont.), panel XX06]
T3 construct: also called hNPR1 CHO K1 + 100 nM ANP
T3 sequence: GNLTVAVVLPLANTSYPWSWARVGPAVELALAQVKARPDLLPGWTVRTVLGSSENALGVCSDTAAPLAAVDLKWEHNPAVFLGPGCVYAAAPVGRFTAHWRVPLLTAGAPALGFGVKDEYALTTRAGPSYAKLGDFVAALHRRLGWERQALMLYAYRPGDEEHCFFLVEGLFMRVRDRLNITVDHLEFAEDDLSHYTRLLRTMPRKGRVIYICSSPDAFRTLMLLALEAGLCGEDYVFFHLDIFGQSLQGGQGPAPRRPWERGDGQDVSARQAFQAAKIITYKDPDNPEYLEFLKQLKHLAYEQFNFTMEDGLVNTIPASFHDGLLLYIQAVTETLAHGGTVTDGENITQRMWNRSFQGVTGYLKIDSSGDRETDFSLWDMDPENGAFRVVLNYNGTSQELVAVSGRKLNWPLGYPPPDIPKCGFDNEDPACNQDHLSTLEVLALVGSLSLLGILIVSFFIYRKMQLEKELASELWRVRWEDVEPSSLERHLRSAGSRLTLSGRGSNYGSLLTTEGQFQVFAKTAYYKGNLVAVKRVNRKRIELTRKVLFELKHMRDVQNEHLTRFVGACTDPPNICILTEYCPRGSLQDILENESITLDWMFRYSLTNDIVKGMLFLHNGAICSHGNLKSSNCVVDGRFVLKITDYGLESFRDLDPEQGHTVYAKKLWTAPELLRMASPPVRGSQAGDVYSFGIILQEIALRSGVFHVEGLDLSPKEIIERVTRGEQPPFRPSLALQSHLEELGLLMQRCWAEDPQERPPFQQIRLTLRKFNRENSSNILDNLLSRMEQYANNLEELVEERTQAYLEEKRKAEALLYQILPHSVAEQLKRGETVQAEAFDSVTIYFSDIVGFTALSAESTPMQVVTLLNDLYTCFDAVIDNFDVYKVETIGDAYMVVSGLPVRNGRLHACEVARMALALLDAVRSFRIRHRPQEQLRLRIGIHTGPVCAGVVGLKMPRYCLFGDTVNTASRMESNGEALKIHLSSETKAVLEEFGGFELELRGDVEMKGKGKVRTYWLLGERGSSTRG
T3 sequence (peptide): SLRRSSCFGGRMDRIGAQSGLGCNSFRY

[5] = target: T4, human NPR3 (counter target) (human, UniProt P17342 27-481, limits assumed); test: ELISA, IgG titrated on coated antigen, fluorescence [Cont.]
T4 construct: Pannings used hNPR3-hFc; also called hNPR3; hNPR3-hFc
T4 sequence (looked up): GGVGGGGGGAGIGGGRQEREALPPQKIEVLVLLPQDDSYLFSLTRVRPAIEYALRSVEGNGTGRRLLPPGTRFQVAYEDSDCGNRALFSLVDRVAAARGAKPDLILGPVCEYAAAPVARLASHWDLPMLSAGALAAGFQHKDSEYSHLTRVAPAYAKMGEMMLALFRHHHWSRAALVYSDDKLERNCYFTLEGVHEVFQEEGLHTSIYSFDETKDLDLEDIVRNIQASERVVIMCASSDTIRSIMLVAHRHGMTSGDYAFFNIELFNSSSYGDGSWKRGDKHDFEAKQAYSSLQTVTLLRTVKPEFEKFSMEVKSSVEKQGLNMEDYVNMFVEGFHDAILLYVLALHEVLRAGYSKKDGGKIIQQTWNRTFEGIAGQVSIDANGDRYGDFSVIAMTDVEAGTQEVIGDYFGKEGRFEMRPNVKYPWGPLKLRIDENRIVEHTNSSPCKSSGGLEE
Method: Furthermore, the clones were tested via ELISA for binding to the following antigens: human NPR1, constitutively active human NPR1 mutant (W74R), rat NPR1, human NPR3 (counter target), each in the absence and presence of ANP, and BSA. The clones were also analyzed by flow cytometry for binding to human NPR1 expressing CHO K1 cells in absence and presence of ANP (100 nM) and to parental CHO K1 cells.

[6] = target: T5, human NPR3 in the presence of ANP (human, UniProt P17342 27-481; P01160 124-151, limits assumed); test: ELISA, IgG titrated on coated antigen with ANP (250 fold molar excess), fluorescence [Cont.]
T5 construct: also called hNPR3 + 100 nM ANP
T5 sequence (looked up): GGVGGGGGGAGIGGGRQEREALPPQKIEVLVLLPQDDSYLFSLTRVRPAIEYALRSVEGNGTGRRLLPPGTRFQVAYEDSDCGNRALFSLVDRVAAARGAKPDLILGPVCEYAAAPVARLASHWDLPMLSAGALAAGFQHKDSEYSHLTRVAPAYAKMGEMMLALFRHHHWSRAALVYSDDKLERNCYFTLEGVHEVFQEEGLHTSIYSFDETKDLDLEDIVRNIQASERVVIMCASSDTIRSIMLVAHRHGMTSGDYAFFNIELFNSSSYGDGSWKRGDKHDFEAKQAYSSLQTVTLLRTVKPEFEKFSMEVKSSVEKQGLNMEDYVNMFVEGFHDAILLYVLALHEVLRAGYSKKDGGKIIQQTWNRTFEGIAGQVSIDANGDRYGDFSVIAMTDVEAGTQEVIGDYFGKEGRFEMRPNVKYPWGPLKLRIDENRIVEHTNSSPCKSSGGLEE
T5 sequence (peptide, looked up): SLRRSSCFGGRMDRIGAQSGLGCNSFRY

hNPR1-ANP complex = target: T6, hNPR1-ANP complex (human, UniProt P01160 124-151, limits assumed); test: FRET ANP competition assay, IgG titrated on hNPR1 with Cy5-labeled ANP; negative values mean more ANP signal [Cont.), panel XX06]
T6 construct: hNPR1 antigen in the presence of ANP; also called hNPR1 + 100 nM ANP
T6 sequence: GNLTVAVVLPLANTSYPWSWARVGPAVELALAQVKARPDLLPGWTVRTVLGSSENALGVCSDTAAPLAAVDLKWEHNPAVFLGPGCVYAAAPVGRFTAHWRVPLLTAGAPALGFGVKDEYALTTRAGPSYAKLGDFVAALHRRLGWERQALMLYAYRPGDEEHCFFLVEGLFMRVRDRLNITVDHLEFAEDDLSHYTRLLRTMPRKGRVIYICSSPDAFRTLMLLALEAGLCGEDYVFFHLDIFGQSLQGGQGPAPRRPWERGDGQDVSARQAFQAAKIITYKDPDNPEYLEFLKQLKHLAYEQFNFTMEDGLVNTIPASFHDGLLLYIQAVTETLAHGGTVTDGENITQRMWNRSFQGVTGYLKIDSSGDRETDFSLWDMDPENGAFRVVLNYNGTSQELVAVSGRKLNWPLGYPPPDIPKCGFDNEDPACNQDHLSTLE
T6 sequence (peptide): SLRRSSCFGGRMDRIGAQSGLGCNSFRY
Method: The same 31 IgGs were tested for ANP competition using a Fluorescence Resonance Energy Transfer (FRET)-based assay in which the NPR1-specific antibodies competed with ANP for binding to NPR1. In this FRET based assay (see FIG. 3), Eu-labeled Streptavidin (for measurement of IgGs) or Eu-labeled anti-hFc antibody (for measurement of FabCys) was used as an energy donor, while Cy5-labeled ANP was used as an acceptor (for all measurements). The resulting fluorescent signal was decreased by ANP-competitive antibodies. The assay was performed as follows: antibodies were mixed with NPR1 and incubated for 5 minutes at room temperature. After addition of the Eu-labeled donor and incubation for 30 minutes at room temperature, the Cy5-ANP solution was added. After a further 60-minute incubation, readout was performed using a TECAN Infinite M1000 Pro using an excitation wavelength of 317 nm and an emission wavelength of 665 nm. Percentage of ANP competition was calculated according to the following formulae: […]

Row | Binder | binding result (rat NPR1 (rNPR1)) | binding result (rNPR1-ANP complex) | flow cytometry S/BG at 2 µM IgG [1] [S/BG] | EC50 [2] [nM] | EC50 [3] [nM] | EC50 (read off the curve) [4] [nM] | binding result [5] | binding result [6] | EC50 (read off the curve) (hNPR1-ANP complex) [nM]
1 | WW06 (IgG format) (antibody, V domains shown, also called WW06_LALA) VH: QVQLVQSGAEVKKPGESLKISCKGSGYSFTSYWIAWVRQMPGKGLEWMGRIDPDNSYTRYSPSFQGQVTISADKSISTAYLQWSSLKASDTAMYYCARWLSPGYALGEQPAGMDHWGQGTLVTVSS VL: DIVLTQPPSVSGAPGQRVTISCTGSSSNIGAGYAVHWYQQLPGTAPKLLIYSNNKRPSGVPDRFSGSKSGTSASLAITGLQAEDEADYYCQSYDLQKSSRVFGGGTKLTVLG | no binding (tested: 1000 nM) | no binding (tested: 1000 nM) | 1.1 | 0.9 | 0.8 |  |  |  | 
2 | XX06 (IgG format) (antibody, V domains shown) VH: QVQLLESGGGLVQPGGSLRLSCAASGFTFSSYWMNWVRQAPGKGLEWVSAISSDGSYTYYADSVKGRFTISRDNSKNTLYLQMNSLRAEDTAVYYCARDRYSMIYSYGAGAFDYWGQGTLVTVSS VL: DIQMTQSPSSLSASVGDRVTITCRASQGISSYLAWYQQKPGKAPKLLIYTASTLQSGVPSRFSGSGSGTDFTLTISSLQPEDFATYYCQQTWRKPRTFGQGTKVEIK |  |  |  |  |  | ~2 | no binding (tested: 200 nM) | no binding (tested: 200 nM) | ~0.2
